{"source": "patent US9090897B2", "about": "“Production of IFN-lambda by conventional dendritic cells” (Bavarian Nordic A/S, priority 2009, dated 2015)", "key": {"splenic CD8+ cDC": {"system": "splenic CD8+ cDC", "assay": "In vitro stimulation of sorted splenic CD8+ cDCs, cytokines in supernatant (IFN-λ ELISA, IL-12p70 FlowCytomix)", "format": "cell-based, mouse", "conditions": "for IFN-λ production in combination with poly IC: stimulus added together with poly IC, IL-3 and GM-CSF, 18 h; for effect of cytokine on IFN-λ production / effect of cytokine on IL-12p70 production: combinatory stimulus poly IC+CpG-1668, cytokine 10 ng/ml", "excerpt": "DC subsets were isolated from pooled mouse spleens as described (Vremec et al., 2007). Briefly, spleens were chopped, digested with collagenase (Worthington Biochemical) and DNase (Roche) at room temperature, and treated with EDTA. Low-density cells were enriched by density centrifugation; non-DC lineage cells were coated with mAbs (anti-CD3, KT3-1.1; anti-Thy-1, T24/31.7; anti Gr-1, 1A8; anti-CD19, ID3; anti-erythrocytes, TER119 and anti-NK cells, DX5) and depleted using anti-rat Ig magnetic beads (Qiagen). Dead cells were excluded by propidium iodide staining. cDC populations were sorted based on the expression of CD11c, CD45RA, CD4, CD8a and CD172a and pDCs were purified based on CD11c, CD45RA, and CD172a (all BD Biosciences) expression. Cell sorting was performed on a FACS Aria instrument (BD Biosciences).\nCells were stimulated in vitro with single TLR agonists or combinations thereof containing 10 μg/ml Pam3Cys (InvivoGen), 100 μg/ml poly IC (Axxora), 10 μg/ml LPS (E. coli; Sigma-Aldrich or Axxora), 10 μg/ml R848 (Axxora), 1 μM CpG-1668 or CpG-2216 (TIB-Molbiol), 1 μg/ml profilin of toxoplasma (Axxora). The recombinant cytokines mouse-IL-3, mouse-IL-4, rat-IFN-γ (PeproTech) and mouse-GM-CSF (Tebu-Bio) (10 ng/ml each) were added as indicated. The addition of IL-3 and GM-CSF was based on previous observations that GM-CSF promoted the production of IL-12p70 and that the combination of IL-3 and GM-CSF increased virus induced IFN-λ production in pDCs and cDCs (Hochrein et al., 2000; Hochrein et al., 2004). As source of a parapoxvirus Zylexis, which is used for veterinary purposes was purchased from a pharmacy. HSV-1, in replication deficient form known as disc HSV-1 (HSV-1d) was used as described (Hochrein et al., 2004). IFN-λ in supernatants was analyzed by ELISA and IL-12p70 was determined by FlowCytomix bead assay (Bender Medsystems) according to manufacturer's protocol."}, "CD8α+ cDCs": {"system": "CD8α+ cDCs", "assay": "In vitro stimulation of FL expanded ex-vivo isolated splenic CD8α+ cDCs, IFN-λ", "format": "cell-based, mouse", "conditions": "5×10^5/ml, IL-3+GM-CSF+IL-4+IFN-γ, 100 μg/ml, 18 h", "procedure": "(§1) FIG. 13 depicts that in vivo FL expanded CD8α+cDCs and eCD8α cDCs selectively produce IFN-λ to poly AU in vitro. Highly purified FL expanded ex-vivo isolated splenic 5×10^5/ml were stimulated in the presence of IL-3+GM-CSF+IL-4+IFN-γ with either poly IC (100 μg/ml) or poly AU (100 μg/ml). After 18 h supernatants were analyzed for IFN-λ.\n(§2) To see if the IFN-λ production to poly AU seen in vivo would correspond with the same cells as in response to poly IC we enhanced the amount of DC in mice with FL treatment and sorted CD8α+ cDCs, eCD8α cDCs and CD11b+/CD172a+cDCs. Those cells were stimulated with poly IC or poly AU."}, "mice [1]": {"system": "mice", "assay": "In vivo challenge (i.v.), serum IFN-λ and IFN-α by ELISA", "design": "species or system mouse", "conditions": "for IFN-λ production to poly IC after growth factor treatment: FL-KO mice treated 7 days with 10 μg growth factor per day, then 100 μg poly IC i.v., 3-4 h", "procedure": "Mice were injected i.v. into the lateral tail vein with 100 μg poly IC (Axxora) and serum was collected 3-4 h after challenge. Sera were pre-diluted 1/5, […] was analyzed by ELISA as described (Hochrein et al., 2004). IFN-λ was determined by an IFN-λ3 (IL-28B) ELISA (R&D Systems)."}, "eCD8α cDCs": {"system": "eCD8α cDCs", "assay": "In vitro stimulation of FL expanded ex-vivo isolated splenic eCD8α cDCs, IFN-λ", "format": "cell-based, mouse", "conditions": "5×10^5/ml, IL-3+GM-CSF+IL-4+IFN-γ, 100 μg/ml, 18 h", "procedure": "as §1, §2"}, "mice [2]": {"system": "mice", "assay": "In vivo challenge (i.v.), serum IFN-λ and IFN-α by ELISA", "design": "species or system mouse"}}, "note": "Entries after “also recorded” stand apart in the source; their conditions may differ."}
{"molecule": "CCCCCCCCCCCCCCCC(=O)N[C@@H](CSC[C@@H](COC(=O)CCCCCCCCCCCCCCC)OC(=O)CCCCCCCCCCCCCCC)C(=O)O", "note": "[Pam3Cys]", "values": [{"measurement": "IFN-λ production in combination with poly IC", "setting": "splenic CD8+ cDC", "value": "synergistically increased IFN-λ production"}]}
{"molecule": "CCOCc1nc2c(N)nc3ccccc3c2n1CC(C)(C)O", "note": "[R848]", "values": [{"measurement": "IFN-λ production in combination with poly IC", "setting": "splenic CD8+ cDC", "value": "unable to support poly IC induced IFN-λ production"}]}
{"molecule": "polyadenylic:polyuridylic acid [poly AU]", "values": [{"measurement": "IFN-λ production", "setting": "CD8α+ cDCs", "value": "able to produce IFN-λ"}, {"measurement": "IFN-λ in the sera", "setting": "mice [1]; mice, 100 or 500 μg i.v., sera after 3-4 h", "value": "induces IFN-λ; also recorded: induced IFN-λ in the sera of mice"}, {"measurement": "IFN-λ production", "setting": "eCD8α cDCs", "value": "able to produce IFN-λ"}, {"measurement": "systemic IFN-λ", "setting": "mice [2]; mice, poly AU injection", "value": "not detectable"}]}
{"molecule": "M-CSF: M-CSF receptor ligand, growth factor (protein, UniProt P09603 33-554, looked up) Macrophage colony-stimulating …: EEVSEYCSHMIGSGHLQSLQRLIDSQMETSCQITFEFVDQEQLKDPVCYLKKAFLLVQDIMEDTMRFRDNTPNAIAIVQLQELSLRLKSCFTKDYEEHDKACVRTFYETPLQLLEKVKNVFNETKNLLDKDWNIFSKNCNNSFAECSSQDVVTKPDCNCLYPKAIPSSDPASVSPHQPLAPSMAPVAGLTWEDSEGTEGSSLLPGEQPLHTVDPGSAKQRPPRSTCQSFEPPETPVVKDSTIGGSPQPRPSVGAFNPGMEDILDSAMGTNWVPEEASGEASEIPVPQGTELSPSRPGGGSMQTEPARPSNFLSASSPLPASAKGQQPADVTGTALPRVGPVRPTGQDWNHTPQKTDHPSALLRDPPEPGSPRISSLRPQGLSNPSTLSAQPQLSRSHSSGSVLPLGELEGRRSTRDRRSPAEPEGGPASEGAARPLPRFNSVPLTDTGHERQSEGSFSPQLQESVFHLLVPSVILVLLAVGGLLFYRWRRRSHQEPQRADSPLEQPEGSPLTQDDRQVELPV", "values": [{"measurement": "IFN-λ production to poly IC after growth factor treatment", "setting": "mice [1]", "value": "able to increase IFN-λ production to poly IC"}]}
{"molecule": "IFN-γ: recombinant cytokine rat-IFN-γ (protein, UniProt P01581 23-156, looked up) Interferon gamma: QGTLIESLESLKNYFNSSSMDAMEGKSLLLDIWRNWQKDGNTKILESQIISFYLRLFEVLKDNQAISNNISVIESHLITNFFSNSKAKKDAFMSIAKFEVNNPQIQHKAVNELIRVIHQLSPESSLRKRKRSRC", "values": [{"measurement": "effect of cytokine on IFN-λ production", "setting": "splenic CD8+ cDC", "value": "enhanced the production of IFN-λ"}, {"measurement": "effect of cytokine on IL-12p70 production", "setting": "splenic CD8+ cDC", "value": "little effects on IL-12p70 production"}]}
{"molecule": "FL: Fms-related tyrosine kinase 3 ligand, growth factor involved in development of DCs (protein, UniProt P49771 27-235, looked up) Fms-related tyrosine kinase 3 …: TQDCSFQHSPISSDFAVKIRELSDYLLQDYPVTVASNLQDEELCGGLWRLVLAQRWMERLKTVAGSKMQGLLERVNTEIHFVTKCAFQPPPSCLRFVQTNISRLLQETSEQLVALKPWITRQNFSRCLELQCQPDSSTLPPPWSPRPLEATAPTAPQPPLLLLLLLPVGLLLLAAAWCLHWQRTRRRTPRPGEQVPPVPSPQDLLLVEH", "values": [{"measurement": "IFN-λ production to poly IC after growth factor treatment", "setting": "mice [1]", "value": "not only restored, but even increased, their IFN-λ producing capacity above WT level"}, {"measurement": "systemic IFN-λ response to poly IC challenge after growth factor treatment", "setting": "mice [2]; FL treated WT mice", "value": "greatly increased systemic IFN-λ response"}]}
{"molecule": "IL-4: recombinant cytokine mouse-IL-4 (protein, UniProt P07750 21-140, looked up) Interleukin-4: HIHGCDKNHLREIIGILNEVTGEGTPCTEMDVPNVLTATKNTTESELVCRASKVLRIFYLKHGKTPCLKKNSSVLMELQRLFRAFRCLDSSISCTMNESKSTSLKDFLESLKSIMQMDYS", "values": [{"measurement": "effect of cytokine on IFN-λ production", "setting": "splenic CD8+ cDC", "value": "not IFN-λ production"}, {"measurement": "effect of cytokine on IL-12p70 production", "setting": "splenic CD8+ cDC", "value": "increased IL-12p70"}]}
